Experiment [1] concerns the target T1, HCMV glycoprotein gH, strain TB40/E (U373^gH cells, TB40/E-infected cells, virions) (Human cytomegalovirus strain TB40/E). Kind of experiment: cell-based or functional assay.
Experiment [2] addresses HCMV glycoprotein gH, strain AD169 (AD169IE2-YFP-infected MRC5 cells and virions) (Human cytomegalovirus strain AD169, UniProt P12824 24-743). Kind of experiment: cell-based or functional assay.
Experiment [3] concerns the target HCMV glycoprotein gH, strain TR (virions) (Human cytomegalovirus strain TR). Kind of experiment: cell-based or functional assay.
The target of experiment [4] is T1, HCMV glycoprotein gH, strain TB40/E …. Kind of experiment: cell-based or functional assay. The source holds these as a separate data set.
Experiment [5] deals with HCMV glycoprotein gH, strain DAVIS (virions) (Human cytomegalovirus strain DAVIS). Kind of experiment: cell-based or functional assay.
Experiment [6] addresses HCMV glycoprotein gH, strain VHL/E (virions) (Human cytomegalovirus strain VHL/E). Nature of the experiment: cell-based or functional assay.
Experiment [7] concerns the target T2, cyclic gH peptides (7, 10 and 13 aa libraries) spanning gH residues 485-493 (Human cytomegalovirus, cyclized with a thioether linkage between the N' and C' termini).
T2 construct: also called region spanning residues 485-493
Nature of the experiment: cyclic peptide microarray (PEPperCHIP), anti-mouse DyLight680 detection.

Experiment [8] addresses T3, gH alanine mutant 488-489 transfected into HEK293 cells with gL (Human cytomegalovirus (consensus …)).
T3 construct: whole, on cells
Kind of experiment: flow cytometry, HEK293 cells transfected with gH alanine mutant and gL; % of gH-positive cells compared to WT. Background: In flow cytometry, cells or beads pass a laser one at a time.

Experiment [9] deals with T4, gH alanine mutant 482-483 transfected into HEK293 cells with gL (Human cytomegalovirus (consensus …)).
T4 construct: whole, on cells
The experiment is described as above.

Experiment [10] concerns the target T5, gH alanine mutant 484-485 transfected into HEK293 cells with gL (Human cytomegalovirus (consensus …)).
T5 construct: whole, on cells
Described as above.

In experiment [11] the target is T6, gH alanine mutant 480-481 transfected into HEK293 cells with gL (Human cytomegalovirus (consensus …)).
T6 construct: whole, on cells
The experiment is described as above.

Experiment [12] addresses T7, gH alanine mutant 490-491 transfected into HEK293 cells with gL (Human cytomegalovirus (consensus …)).
T7 construct: whole, on cells
Described as above.

Experiment [13] has as its target gH alanine mutant 478-488 (label as in Table 6). Described as above.
The target of experiment [14] is T8, gH mutant 480-486 (consecutive alanine substitutions) transfected into HEK293 cells with gL (Human cytomegalovirus (consensus …)).
T8 construct: whole, on cells; also called 480-486 mutant; gH mutant 480-86
Described as above.

For experiment [15], the target named is T9, gH alanine mutant 486-487 transfected into HEK293 cells with gL (Human cytomegalovirus (consensus …)).
T9 construct: whole, on cells
The description is as above.

The target of experiment [16] is T10, gH mutant 485-492 (consecutive alanine substitutions) transfected into HEK293 cells with gL (Human cytomegalovirus (consensus …)).
T10 construct: whole, on cells; also called 485-492 mutant; gH mutant 485-92
The experiment is described as above.

B1: monoclonal antibody 5C3 (antibody, V domains shown)
VH: QVQLQQPGAELVRPGASVKLSCKASGYTFTTYWMNWVKQRPGQGLEWIGMIDPSDSETHYNQMFKDKATLTVDTSSSTAYMQLSSLTSEDSAVYYCARGRSWFVYWGQGTLVTVSS
VL: DIVLTQSPASLAVSLGQRATISCRASKSVSSSGYSYVHWYQQKPGQPPKLLIYLASNLESGVPARFSGSGSGTDFTLNIHSVEEEDAATYYCQHNRELPYTFGGGTKLEIKR
notes: also called mAb 5C3; 5C3^647 (Alexa Fluor 647 conjugate)
For the molecule B1, the “IC50, neutralization of TB40/E FLAG-YFP infection of ARPE-19 epithelial cells (YFP read-out)” value in experiment [1] was determined as 0.04 mg/L. In experiment [2], the “IC50, neutralization of AD169IE2-YFP infection of fibroblasts (IE2-YFP read-out)” value worked out at 0.24 mg/L. In experiment [3], the “IC50, strain TR, epithelial cells, α-IE staining” value was 0.16 mg/L. The “IC50, strain TR, fibroblasts, plaque assay” value in experiment [3] came out at 2.13 mg/L. For the same molecule, the “IC50, strain TR, fibroblasts, α-IE staining” value in [3] amounted to 0.63 mg/L. For the same molecule, the “IC50, neutralization of TB40/E FLAG-YFP infection of fibroblasts (FLAG-YFP read-out)” value in [4] is 0.07 mg/L. For the same molecule, in experiment [4], the “IC50, strain TB40/E, epithelial cells, α-IE staining” value turned out to be 0.96 mg/L. Moreover, the “IC50, strain TB40/E, fibroblasts, plaque assay” value in [4] turned out to be 0.45 mg/L. The “IC50, strain TB40/E, fibroblasts, α-IE staining” value in [4] amounted to 0.88 mg/L. Besides, in experiment [5], the “IC50, strain Davis, fibroblasts, plaque assay” value is 0.22 mg/L. In addition, the “IC50, strain VHL/E, epithelial cells, α-IE staining” value in experiment [6] worked out at 0.11 mg/L. For the same molecule, the “IC50, strain VHL/E, fibroblasts, plaque assay” value in experiment [6] came to 0.02 mg/L. For the same molecule, in experiment [6], the “IC50, strain VHL/E, fibroblasts, α-IE staining” value came out at 0.02 mg/L. In experiment [7], this molecule showed a fold over background of approximately 3 fold. The “Avg. binding (% of mass)” value in experiment [8] came to 113%; in experiment [9] it was 85%; in experiment [10], 76%; in experiment [11], 72%; in experiment [12], 92%; in experiment [13] it was 100%. The figures for the “Avg. binding (% of mass)” value in [14], in experiment [15] and in experiment [16] were 14%, 56% and 49%, respectively.

B2: monoclonal antibody 10C10 (antibody, V domains shown)
VH: EVQLQQSGPELVKPGVSMRISCKASGFSFTDYTMNWVKQSHRKNLEWIGLVNPYNGGTSHNPNFKGKATLTVDKSSSTAYMELLSLTSEDSAVYYCARRGRRDYALDYWGQGTSVTVSS
VL: DIVLTQSPVTLSVTPGDSVSLSCRASQSVSNNLHWYQQKSHESPRLLIKYASQSISGIPSRFRGSGSGTDFTLSIISVETEDFGMYFCQQSNIWPHTFGAGTKLELKR
notes: also called mAb 10C10; 10C10^647 (Alexa Fluor 647 conjugate)
On to B2, for which, in [1], the “IC50, neutralization of TB40/E FLAG-YFP infection of ARPE-19 epithelial cells (YFP read-out)” value was 0.13 mg/L. The “IC50, neutralization of AD169IE2-YFP infection of fibroblasts (IE2-YFP read-out)” value in experiment [2] was 0.5 mg/L. The “IC50, strain TR, epithelial cells, α-IE staining” value in experiment [3] amounted to 0.44 mg/L. In addition, the “IC50, strain TR, fibroblasts, plaque assay” value in [3] was determined as 2.43 mg/L. For the same molecule, the “IC50, strain TR, fibroblasts, α-IE staining” value in [3] turned out to be 2.34 mg/L. Further, the “IC50, neutralization of TB40/E FLAG-YFP infection of fibroblasts (FLAG-YFP read-out)” value in experiment [4] amounted to 0.38 mg/L. For the same molecule, the “IC50, strain TB40/E, epithelial cells, α-IE staining” value in experiment [4] stood at 1.35 mg/L. Moreover, the “IC50, strain TB40/E, fibroblasts, plaque assay” value in [4] came out at 1.28 mg/L. In addition, in experiment [4], the “IC50, strain TB40/E, fibroblasts, α-IE staining” value was determined as 4.18 mg/L. Also, the “IC50, strain Davis, fibroblasts, plaque assay” value in experiment [5] worked out at 0.37 mg/L. Further, the “IC50, strain VHL/E, epithelial cells, α-IE staining” value in experiment [6] was found to be 0.11 mg/L. Further, in [6], the “IC50, strain VHL/E, fibroblasts, plaque assay” value is 0.24 mg/L. Besides, in [6], the “IC50, strain VHL/E, fibroblasts, α-IE staining” value was determined as 0.24 mg/L. The “Avg. binding (% of mass)” value was found to be 98% in [8]; 91% in [9]; 3% in experiment [10]; 70% in [11]; 72% in [12]; 100% in [13]. Besides, the “Avg. binding (% of mass)” value in [14] was found to be 3%; in experiment [15], 2%; in experiment [16], 2%.

For the origin of these results see patent US20200330588A1 (ICAHN SCHOOL OF MEDICINE AT MOUNT SINAI, published 2020).
